Laboratory results reported in US20160355576A1.

What was measured:
[1] = target: native TTR-V30M (human), P02766; test: SPR, antibody captured by anti-human IgG-Fc, TTR 3.2-316 nM, Langmuir 1:1 fit; conditions: remark: other sources report otherwise
[2] = target: misfolded-aggregated human wild-type TTR (human), P02766; test: as above; conditions: remark: other sources report otherwise
[3] = target: native TTR-L55P (human), P02766; test: as above; conditions: remark: other sources report otherwise
[4] = target: human wild-type TTR protein in native conformation (human) (UniProt P02766); test: as above
[5] = target: misfolded-aggregated recombinant V30M-TTR (human), P02766; test: direct ELISA, antigen coated at 10 µg/ml; conditions: remark: other sources report otherwise
[6] = target: misfolded-aggregated human wild-type TTR (human), P02766; test: direct ELISA, antigen coated at 10 µg/ml; conditions: remark: other sources report otherwise

- Kd [1]: 33 nM
- koff [1]: 0.00024 s⁻¹
- kon [1]: 7400 M⁻¹ s⁻¹
- Kd [2]: 12 nM
- koff [2]: 0.00027 s⁻¹
- kon [2]: 23000 M⁻¹ s⁻¹
- Kd [3]: > 100 nM
- Kd [4]: > 316 nM
- EC50 [5]: 5 nM
- EC50 [6]: 3.9 nM
B1: NI-301.35G11 (antibody, V domains shown)
VH: EVQLVESGGGLVQPGGSLRLSCVASGFTFSSYAMSWVRQVPGKGLEWVSSISGSGDTTKYTDSVKGRFTISRDNSKNTVFLQMSSLRAEDTALYYCVKDGSGRIDPFALWGQGTMVTVSS
VL: EIVMTQSPLSLPVTLGQPASISCRSSRSLVYSDGNIYLNWFQQRPGQSPRRLIYKVSNRDSGVPDRFSGSGSDTDFTLRISRVEAEDVGVYYCMQGTHWPRTFGQGTKVEIK
